Experimental data from patent publication US8951752B2, “N-demethyase genes and uses thereof” (priority 2011, dated 2015).

Columns and labels:
Type in all cases: biochemical, Pseudomonas putida CBB5
[1] = target: T1, cytochrome c reductase (Ccr) (Pseudomonas putida, UniProt H9N291); test: NAD(P)H:cytochrome c oxidoreductase activity
T1 construct: 87 μM bovine cytochrome c (type Ill; Sigma), and 1-20 μg CBB5 protein (depending on purity); made in house; host or cells: column fractions of the natural strain Pseudomonas putida CBB5; not recombinant
T1 sequence (H9N291 whole entry): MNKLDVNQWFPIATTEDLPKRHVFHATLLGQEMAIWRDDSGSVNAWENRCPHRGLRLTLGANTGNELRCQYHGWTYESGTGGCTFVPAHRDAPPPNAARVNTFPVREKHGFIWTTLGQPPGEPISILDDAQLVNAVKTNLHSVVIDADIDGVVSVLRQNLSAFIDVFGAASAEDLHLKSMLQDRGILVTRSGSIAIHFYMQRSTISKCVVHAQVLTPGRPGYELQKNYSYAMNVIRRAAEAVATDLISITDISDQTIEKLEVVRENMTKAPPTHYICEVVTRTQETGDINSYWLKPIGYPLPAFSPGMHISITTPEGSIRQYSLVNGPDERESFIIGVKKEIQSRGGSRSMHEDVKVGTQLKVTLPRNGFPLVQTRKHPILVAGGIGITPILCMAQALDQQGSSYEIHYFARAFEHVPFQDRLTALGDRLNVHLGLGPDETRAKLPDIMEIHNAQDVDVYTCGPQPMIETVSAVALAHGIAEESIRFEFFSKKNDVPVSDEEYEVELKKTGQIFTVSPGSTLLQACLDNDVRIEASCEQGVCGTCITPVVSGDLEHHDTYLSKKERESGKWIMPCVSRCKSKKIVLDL
Experimental: Enzyme Activity Assays. NADH:cytochrome c oxidoreductase (cytochrome c reductase, Ccr) activity was determined as described by Ueda et al. (1972). A typical 1-mL reaction contained 300 μM NADH, 87 μM bovine cytochrome c (type Ill; Sigma), and 1-20 μg CBB5 protein (depending on purity) in 50 mM KPi buffer. The activity was determined by monitoring the increase in absorbance at 550 nm due to reduction of […] cytochrome c at 30° C. An extinction coefficient of 21,000 M^−1 cm^−1 for reduced minus oxidized cytochrome c was used for quantitating the activity. One unit of activity was defined as one μmol of cytochrome c reduced per minute.

[2] = substrate: Cn1cnc2[nH]c(=O)[nH]c(=O)c21; test: Methylxanthine N-demethylase activity assay with purified Ndm plus partially purified Ccr; settings: other: saturating Ccr, 50 μM Fe2+, 30° C., 50 mM KPi pH 7.5
Experimental: (§1) Methylxanthine N-demethylase activity assay contained, in 1-mL total volume, 0.5 mM methylxanthine, 1 mM NADH, 50 μM Fe(NH4)2(SO4)2, and an appropriate amount of Ndm (0.08-7.5 mg protein, depending on purity of the protein) in 50 mM KPi buffer. Approximately 4 U of partially purified Ccr was added to reaction mixture when assaying Ndm in Phenyl Sepharose and Q Sepharose eluant-fractions (Ccr was not added to the enzyme reaction mixture when assaying Ndm activity in DEAE Sepharose eluant-fractions because Ccr co-eluted with Ndm). The reaction mixture was incubated at 30° C. with 300 rpm shaking on an incubating microplate shaker (VWR). Periodically, a small aliquot was sampled from the reaction mixture and mixed with equal volume of acetonitrile for quantifying concentrations of methylxanthines and N-demethylated products by HPLC. One unit of N-demethylase activity was defined as the consumption of one μmole methylxanthine per minute. When Ndm was coupled with the reductase and ferredoxin components of naphthalene dioxygenase of Pseudomonas sp. strain 9816 (Haigler & Gibson, 1990a; Haigler & Gibson, 1990b), 30 and 100 μg of the respective proteins were used. Spinach ferredoxin reductase and ferredoxin were also substituted for Ccr as described by Subramanian et al. (1979).
(§2) Determination of Kinetic Parameters. Apparent kinetic parameters of Ndm were determined by measuring the initial rate of disappearance (vo) of paraxanthine or 7-methylxanthine in 50 mM KPi buffer (pH 7.5) at 30° C. The paraxanthine and 7-methylxanthine concentrations ([S]) used in these experiments were from 20 to 500 μM. Substrates were incubated with Ndm and Ccr under standard conditions for 15 minutes. At 1, 5, 10, and 15 minutes, samples were removed from the reaction mixtures to quantitate substrate concentrations by HPLC. Plots of substrate concentrations against time were used to determine the initial rates of disappearance of substrates which were linear over 15 minutes. The apparent kinetic parameters were determined from Michaelis-Menten plots of Vo against [S] fitted with the equation
(§3) Determination of Oxygen Requirement. Oxygen consumption by Ndm during N-demethylation of paraxanthine was determined in a closed reaction vessel equipped with a Clarke-type oxygen electrode (Digitial Modell 0, Rank Brothers Ltd., Cambridge, England). […] After 13 minutes, a 100-μL aliquot was withdrawn from the reaction, immediately mixed with equal volume of acetonitrile to stop the enzyme reaction, and analyzed for N-demethylation product by HPLC. Background oxygen consumption, possibly due to NADH oxidase enzyme activity in the partially purified Ccr, was quantitated in control reactions containing all reaction components except paraxanthine. […]

[3] = substrate: Cn1c(=O)[nH]c2ncn(C)c2c1=O; test: as above; settings: other: saturating Ccr, 50 μM Fe2+, 30° C., 50 mM KPi pH 7.5
Experimental: as §1, §2, §3

[4] = substrate: Cn1c(=O)[nH]c2nc[nH]c2c1=O; test: Methylxanthine N-demethylase assay and kinetics, NdmA-His6 with His6-NdmD; settings: other: NdmA-His6, 30° C., pH 7.5, ∞ where no activity
Experimental: (§4) Methylxanthine N-demethylase activity assay contained, in 1-ml total volume, 0.5 mM methylxanthine, 1 mM NADH, 50 μM Fe(NH4)2(SO4)2, and an appropriate amount of NdmA-His6 or NdmB-His6 (7.4 μg-2.5 mg protein depending on substrate specificity) in 50 mM KPi buffer (pH 7.5). Approximately 4 U of partially purified reductase, prepared as described previously (Summers et al., 2011) or 59 U of purified His6-NdmD was added to reaction mixture. Catalase from bovine liver (4,000 U) was also added to reactions containing His6-NdmD. The reaction mixture was incubated at 30° C. with 300 rpm shaking on an incubating microplate shaker (VWR, Radnor, Pa.). Periodically, a small aliquot was sampled from the reaction mixture and mixed with equal volume of acetonitrile for quantifying concentrations of methylxanthines and N-demethylated products by HPLC. One unit of N-demethylase activity was defined as the consumption of one […] methylxanthine per minute.
(§5) Apparent kinetic parameters of NdmA-His6 and NdmB-His6 were determined by measuring the initial rate of disappearance (vo) of methylxanthines in 50 mM KPi buffer (pH 7.5) at 30° C. The initial substrate concentrations (ESI) used in these experiments were from 25 to 500 μM. Substrates were incubated with His6-NdmD plus either NdmA-His6 or NdmB-His6 under standard conditions for 15 minutes. At 1, 5, 10, and 15 minutes, samples were removed from the reaction mixtures to quantitate substrate concentrations by HPLC. Plots of substrate concentrations against time were used to determine the initial rates of disappearance of substrates which were linear over 15 minutes. The apparent kinetic parameters were determined from Michaelis-Menten plots of vo against [S] fitted with the equation

[5] = substrate: Cn1c(=O)c2[nH]cnc2n(C)c1=O; test: as above; settings: other: NdmA-His6, 30° C., pH 7.5, ∞ where no activity
Experimental: as §4, §5

[6] = substrate: Cn1c(=O)c2c(ncn2C)n(C)c1=O; test: as above; settings: other: NdmA-His6, 30° C., pH 7.5, ∞ where no activity
Experimental: as §4, §5

[7] = substrate: Cn1c(=O)[nH]c2ncn(C)c2c1=O; test: as above; settings: other: NdmA-His6, 30° C., pH 7.5, ∞ where no activity
Experimental: as §4, §5

[8] = substrate: Cn1c(=O)[nH]c(=O)c2[nH]cnc21; test: Methylxanthine N-demethylase assay and kinetics, NdmB-His6 with His6-NdmD; settings: other: NdmB-His6, 30° C., pH 7.5, ∞ where no activity
Experimental: as §4, §5

[9] = substrate: Cn1c(=O)c2[nH]cnc2n(C)c1=O; test: as above; settings: other: NdmB-His6, 30° C., pH 7.5, ∞ where no activity
Experimental: as §4, §5

[10] = substrate: Cn1cnc2c1c(=O)[nH]c(=O)n2C; test: as above; settings: other: NdmB-His6, 30° C., pH 7.5, ∞ where no activity
Experimental: as §4, §5

[11] = substrate: Cn1c(=O)c2c(ncn2C)n(C)c1=O; test: as above; settings: other: NdmB-His6, 30° C., pH 7.5, ∞ where no activity
Experimental: as §4, §5

For NC(=O)C1=CN([C@@H]2O[C@H](COP(=O)(O)OP(=O)(O)OC[C@H]3O[C@@H](n4cnc5c(N)ncnc54)[C@H](OP(=O)(O)O)[C@@H]3O)[C@@H](O)[C@H]2O)C=CC1 [NADPH], the “Ccr activity relative to that with NADH” value [1] was 22%.

B1: N-demethylase (Ndm: NdmA and NdmB subunits) (Pseudomonas putida) (protein)
chain 1: MEQAIINDEREYLRHFWHPVCTVTELEKAHPSSLGPLAVKLLNEQLVVAKLGDEYVAMRDRCAHRSAKLSLGTVSGNRLQCPYHGWQYDTHGACQLVPACPNSPIPNKAKVDRFDCEERYGLIWIRLDSSFDCTEIPYFSAANDPRLRIVIQEPYWWDATAERRWENFTDFSHFAFIHPGTLFDPNNAEPPIVPMDRFNGQFRFVYDTPEDMAVPNQAPIGSFSYTCSMPFAINLEVSKYSSSSLHVLFNVSCPVDSHTTKNFLIFAREQSDDSDYLHIAFNDLVFAEDKPVIESQWPKDAPADEVSVVADKVSIQYRKWLRELKEAHKEGSQAFRSALLDPVIESDRSYI
chain 2: MKEQLKPLLEDKTYLRHFWHPVCTLNEFERANASGHGPMGVTLLGEKLVLARLNSKIIAAADRCAHRSAQLSIGRVCSNAGKDYLECPYHGWRYDEAGACQLIPACPDKSISPRAKISSFDCEVKYDIVWVRLDNSFDCTQIPYLSDFDNPDMQVIVADSYIWETVAERRWENFTDFSHFAFVHPGTLYDPFFASHPTVYVNRVDGELQFKLAPPREMKGIPPEAPMGDFTYRCTMPYSVNLEIKLWKDDSRFVLWTTASPVDNKSCRNFMIIVREKDNQPDHMHLAFQKRVLDEDQPVIESQWPLEIQTSEVSVATDKISVQFRKWHKELSLSAVEGREAFRDSVLTNVIEEEQ
notes: lane 3, natural Ndm purified from P. putida CBB5; made in house; host or cells: purified from the natural strain Pseudomonas putida CBB5 (DEAE, Phenyl and Q Sepharose); not recombinant
In the case of B1, the Km [2] is reported as 63.8 ± 7.5 µM, the kcat [2] is reported as 1.58 ± 0.05 s⁻¹ and the Km [3] is reported as 50.4 ± 6.8 µM. The kcat [3] was 0.27 ± 0.01 s⁻¹.

B2: NdmA-His6 (Pseudomonas putida) (protein)
chain: MEQAIINDEREYLRHFWHPVCTVTELEKAHPSSLGPLAVKLLNEQLVVAKLGDEYVAMRDRCAHRSAKLSLGTVSGNRLQCPYHGWQYDTHGACQLVPACPNSPIPNKAKVDRFDCEERYGLIWIRLDSSFDCTEIPYFSAANDPRLRIVIQEPYWWDATAERRWENFTDFSHFAFIHPGTLFDPNNAEPPIVPMDRFNGQFRFVYDTPEDMAVPNQAPIGSFSYTCSMPFAINLEVSKYSSSSLHVLFNVSCPVDSHTTKNFLIFAREQSDDSDYLHIAFNDLVFAEDKPVIESQWPKDAPADEVSVVADKVSIQYRKWLRELKEAHKEGSQAFRSALLDPVIESDRSYI
notes: made in house; host or cells: E. coli BL21(DE3)
B2 was tested, and the Km [4] was 266.6 µM, the kcat [4] was 0.26 s⁻¹ and the kcat/Km [4] was 1000 M⁻¹ s⁻¹. It also gave a Km [5] of 9.1 µM, a kcat [5] of 1.38 s⁻¹ and a kcat/Km [5] of 152000 M⁻¹ s⁻¹. It also gave a Km [6] of 37.6 µM, a kcat [6] of 3.21 s⁻¹ and a kcat/Km [6] of 85000 M⁻¹ s⁻¹. The Km [7] was 52.9 µM, the kcat [7] was 2.21 s⁻¹ and the kcat/Km [7] was 41700 M⁻¹ s⁻¹.

B3: NdmB-His6 (Pseudomonas putida) (protein)
chain: MKEQLKPLLEDKTYLRHFWHPVCTLNEFERANASGHGPMGVTLLGEKLVLARLNSKIIAAADRCAHRSAQLSIGRVCSNAGKDYLECPYHGWRYDEAGACQLIPACPDKSISPRAKISSFDCEVKYDIVWVRLDNSFDCTQIPYLSDFDNPDMQVIVADSYIWETVAERRWENFTDFSHFAFVHPGTLYDPFFASHPTVYVNRVDGELQFKLAPPREMKGIPPEAPMGDFTYRCTMPYSVNLEIKLWKDDSRFVLWTTASPVDNKSCRNFMIIVREKDNQPDHMHLAFQKRVLDEDQPVIESQWPLEIQTSEVSVATDKISVQFRKWHKELSLSAVEGREAFRDSVLTNVIEEEQ
notes: as for B2
For B3, the Km [8] was 22.4 ± 5.2 µM, the kcat [8] was 0.528 ± 0.025 s⁻¹ and the kcat/Km [8] was 23300 M⁻¹ s⁻¹. The Km [9] was 169.0 µM, the Km [10] was 25.3 ± 5.1 µM and the kcat [10] was 0.772 ± 0.0317 s⁻¹. For the same molecule, the kcat/Km [10] was 30000 M⁻¹ s⁻¹, the Km [11] was 41.7 µM and the kcat [11] was 0.00383 s⁻¹. It also gave a kcat/Km [11] of 100 M⁻¹ s⁻¹.
